Among the data in patent US20220220158A1 are Blocking [%], Blocking [%] normalized to Zika and counts values, retold here.

The target of assay [1] is antibodies of human serum sample 16CDV61197. The experiment in a line: DAGS blocking; signal antigen m1 SS-ZIKA-NS1-wing.
Assay [2] deals with antibodies of human serum sample 16CDV61275. Description: DAGS blocking; signal antigen m1 SS-ZIKA-NS1-wing.
For assay [3], the target named is antibodies of human serum sample 16CDV61278. The experiment in a line: DAGS blocking; signal antigen m1 SS-ZIKA-NS1-wing.
Assay [4] concerns the target antibodies of human serum sample 16CDV61197. Description: DAGS blocking; signal antigen m3 S-ZIKA-NS1-ß-ladder.
The target of assay [5] is antibodies of human serum sample 16CDV61275. The description is as above.
Assay [6] addresses antibodies of human serum sample 16CDV61278. Described as above.

B1: Dengue virus type 4 NS1 full length aa 1-352 (protein)
chain: DTGCAVSWSGKELKCGSGIFVIDNVHTWTEQYKFQPESPARLASAILNAHEDGVCGIRSTTRLENIMWKQITNELNYVLWEGGHDLTVVAGDVKGVLSKGKRALAPPVNDLKYSWKTWGKAKIFTPEAKNSTFLIDGPDTSECPNERRAWNFLEVEDYGFGMFTTNIWMKFREGSSEVCDHRLMSAAIKDQKAVHADMGYWIESSKNQTWQIEKASLIEVKTCLWPKTHTLWSNGVLESQMLIPKAYAGPFSQHNYRQGYATQTVGPWHLGKLEIDFGECPGTTVTIQEDCDHRGPSLRTTTASGKLVTQWCCRSCTMPPLRFLGEDGCWYGMEIRPLSEKEENMVKSQVSA
On to B1, for which the Blocking [%] is 0.891% in assay [1]; 2.48% in assay [2]; 4.5% in assay [3]; 31.6% in assay [4]; 25.1% in assay [5]; 2.6% in assay [6]. Further, the Blocking [%] normalized to Zika in assay [1] was found to be 1.2%; in assay [2], 3.3%; in assay [3] it was 4.9%; in assay [4] it was 50.3%; in assay [5] it was 27.3%; in assay [6] it was 3.7%. The counts in assay [1] was found to be 2900 counts; in assay [2] it was 3040 counts; in assay [3], 2880 counts; in assay [4], 2320 counts; in assay [5], 2730 counts; in assay [6], 2830 counts.
